Data reported in patent US8993255B2, “Protein having fructosyl valyl histidine oxidase activity, modified protein, and use of the protein or the modified protein” (Toyo Boseki Kabushiki Kaisha, priority 2008, dated 2015).

Key:
[1] = tested on: CC(C)[C@H](NCC1(O)OC[C@@H](O)[C@@H](O)[C@@H]1O)C(=O)N[C@@H](Cc1c[nH]cn1)C(=O)O; test: purified protein, by the assay type; details: other: IE353, F-VH 0.18-1.75 mM, 37° C., MES pH 6.5, peroxidase-coupled, Lineweaver-Burk plot
Description: The reaction was conducted at 37° C. for 5 minutes, and then a change in the absorbance at 500 nm (ΔODtest/min) was measured. Meanwhile, a blank test was conducted by adding, instead of the enzyme solution, 0.1 ml of enzyme diluent to the activity measuring reagent, and then measuring a change in the absorbance at 500 nm (ΔODblank/min) in the same way. The enzyme activity was calculated from the changes in absorbance on the basis of the following formula, and is described by unit (U) where an amount of enzyme that oxidizes 1 micromole of substrate in one minute under the above-described condition is 1 unit (U). —Formula— Activity value(U/ml)={ΔOD/min(ΔODtest−ΔODblank)×3.1(ml)×dilution magnification}/{13×1.0(cm)×0.1(ml)}. In the above formula, • “3.1 (ml)” is the whole liquid quantity; • “13” is a millimolar absorbance index; • “1.0 (cm)” is an optical length of a cell; and • “0.1 (ml)” is the enzyme sample quantity. […]

[2] = substrate: CC(C)[C@H](NCC1(O)OC[C@@H](O)[C@@H](O)[C@@H]1O)C(=O)N[C@@H](Cc1c[nH]cn1)C(=O)O; test: Km value to F-VH (Lineweaver-Burk plot); type: biochemical, Coniochaeta sp.; details: other: FPOX-CE, F-VH 0.18-1.75 mM, 37° C., MES pH 6.5, peroxidase-coupled
Description: (§1) The chemical compounds used in the present examples were purchased from NACALAI TESQUE, INC. unless otherwise particularly stated.
(§2) The following describes an activity measurement method of the following examples 1 through 3.
(§3) An enzyme activity to a substrate was measured by an increase in absorbance of a pigment as a result of peroxidase reaction involving hydrogen peroxide generated by enzyme reaction. First, 3 ml of activity measuring reagent was heated at 37° C. for 5 minutes, and then 0.1 ml of enzyme solution diluted in advance by an enzyme diluent (a 50 mM potassium phosphate buffer (pH 7.5)) was added to the activity measuring reagent, thereby starting the reaction.
(§4) The reaction was conducted at 37° C. for 5 minutes, and then a change in the absorbance at 500 nm (ΔODtest/min) was measured. Meanwhile, a blank test was conducted by adding, instead of the enzyme solution, 0.1 ml of enzyme diluent to the activity measuring reagent, and then measuring a change in the absorbance at 500 nm (ΔODblank/min) in the same way. […] In the above formula, • “3.1 (ml)” is the whole liquid quantity; • “13” is a millimolar absorbance index; • “1.0 (cm)” is an optical length of a cell; and • “0.1 (ml)” is the enzyme sample quantity.
(§5) The Km value to F-VH was worked out as follows. […] Subsequently, activities in the samples were measured by the above-described activity measurement method. […]

[3] = substrate: CC(C)[C@H](NCC1(O)OC[C@@H](O)[C@@H](O)[C@@H]1O)C(=O)N[C@@H](Cc1c[nH]cn1)C(=O)O; test: Km value to F-VH (Lineweaver-Burk plot); type: biochemical, E. terrenum; details: other: FPOX-EE, F-VH 0.18-1.75 mM, 37° C., MES pH 6.5, peroxidase-coupled
Description: as §1, §2, §3, §4, §5

## Phaeosphaeria nodorum fructosyl valyl histidine oxidase IE353, wild type, SEQ ID NO: 1 (Parastagonospora nodorum SN15)
[1]
  Km: 500 µM

B1: FPOX-CE (Coniochaeta sp.), conventional enzyme manufactured by KIKKOMAM Corporation (Coniochaeta sp. NISL 9330) (protein)
chain: MTSNRADTRVIVVGGGGTIGSSTALHLVRSGYAPANITVLDTFEIPSAQSAGHDLNKIMGIRLRNKVDLQMSLEARQMWKEDELFQPFFHNTGRMDCEHTPEGIEDLKKQYQALHDAGAGLEKTHAWLDNEDEILSKMPLLQRDQIQGWKAIWSQDGGWLAAAKAINAIGQFLKERGVKFGFGGAGSFKQPLFDDEGTTCIGVETADGTKYYADKVVLAAGAWSPTLVDLEDQCCSKAWVYAHIQLTPEEAAEYKGVPVVYNGEFGFFFEPNEFGVIKVCDEFPGFSRFKEHQPYGAPSPKHISVPRSHAKHPTDTYPDASEVSIKKAIATFLPRFQDKELFNRALCWCTDTADAALLMCEHPKWKNFILATGDSGHSFKILPNVGKHVVELIEGRLPEEMAYQWRWRPGGDALKSRRAAPPKDLADMPGWKHDPKL
[2]
  Km: 1000 µM

B2: FPOX-EE (E. terrenum), conventional enzyme manufactured by KIKKOMAM Corporation (Penicillium terrenum) (protein)
chain: MAHSRASTKVVVVGGGGTIGSSTALHLIRSGYTPSNITVLDVYKTPSLQSAGHDLNKIMGIRLRNGPDLQLSLESLDMWQNDELFKPFFHQVGMIDCSSSKEGIENLRRKYQTLLDAGIGLEKTNVWLESEDEILAKAPNFTREQVKGWKGLFCTDGGWLAAAKAINAIGIFLQDKGVKFGFGGAGTFQQPLFAADGKTCIGLETTDGTKYFADKVVLAAGAWSPTLVDLEDQCVSKAWVFAHIQLTPKEADAYKNVPVVYDGEYGFFFEPNEYGVIKVCDEFPGFSRFKLHQPYGAASPKMISVPRSHAKHPTDTYPDASEVTIRKAIARFLPEFKDKELFNRTMCWCTDTADANLLICEHPKWKNFILATGDSGHSFKLLPNIGKHVVELLEGSLSQEMAGAWRWRPGGDALRSRRGAPAKDLAEMPGWKHDAHL
[3]
  Km: 1000 µM
